In publication PMC11077774 (2024):

B1: BicD2-CTD (C-terminal cargo-binding domain of human Bicaudal D2, residues 715-804) [human] / full-length GTP-bound Rab6a/Q72L with N-terminal GST tag [human] (parent complex)
chain 1: YENEKAMVTETMMKLRNELKALKEDAATFSSLRAMFATRCDEYITQLDEMQRQLAAAEDEKKTLNSLLRMAIQQKLALTQRLELLELDHE
chain 2: MSTGGDFGNPLRKFKLVFLGEQSVGKTSLITRFMYDSFDNTYQATIGIDFLSKTMYLEDRTVRLQLWDTAGLERFRSLIPSYIRDSTVAVVVYDITNVNSFQQTTKWIDDVRTERGSDVIIMLVGNKTDLADKRQVSIEEGERKAKELNVMFIETSAKAGYNVKQLFRRVAAALPGMESTQDRSREDMIDIKLEKPQEQPVSEGGCSC

Variants of: B1
Experiment: GST pull-down, SDS-PAGE band quantification; parent: 1; read off a plot

Variant | ratio to parent
chain 2 K53A | ~0.01
chain 2 L78A | ~0.57
chain 2 I48A | ~1.3
chain 2 L51A | ~1.1
chain 2 I79A | ~0.1
chain 2 F50A | ~0.37
chain 2 D49A | ~0.04
chain 2 I46A | ~0.07
chain 2 F75A | ~0.02
chain 2 D85A | ~0.99
chain 2 I83A | ~0.02

Now from value to variant:

ratio to parent | Variant
~1 | chain 2 S81A
~0.38 | chain 2 Y42A
~1 | chain 2 R84A
~0.95 | chain 2 R74A
~0.07 | chain 2 R63A
~0.86 | chain 2 S77A
~1 | chain 2 S52A
~0.75 | chain 2 P80A
~0.4 | chain 2 Y35A
~0.16 | chain 2 Y82A
~0.48 | chain 2 Q65A
~0.79 | chain 2 T54A
~1 | chain 2 Q43A
